Test results from patent US7183387 (Genentech, dated 2007).
Numbering of substitutions follows the chain as printed. Names may count otherwise.

What was measured:
[1] = target: T1, human FcγRIA α subunit extracellular domain-His6-GST fusion (human, UniProt P12314 16-292); experiment: FcγRI ELISA, E27 background
T1 construct: extracellular domain; also called GST-FcγRIA; CD64; not shown: glutathione S transferase (GST)

[2] = target: T2, human FcγRIIA-Arg131 α subunit extracellular domain-His6-GST fusion (human, UniProt P12318 34-217); experiment: immune complex ELISA, E27 background
T2 construct: extracellular domain; also called FcγRIIA-R131; not shown: glutathione S transferase (GST)
T2 sequence: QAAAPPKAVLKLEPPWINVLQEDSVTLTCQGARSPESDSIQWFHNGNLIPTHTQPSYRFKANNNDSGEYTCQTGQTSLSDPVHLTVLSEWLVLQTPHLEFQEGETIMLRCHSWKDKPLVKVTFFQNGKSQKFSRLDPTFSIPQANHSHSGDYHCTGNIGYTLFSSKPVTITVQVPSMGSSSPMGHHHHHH

[3] = target: T3, human FcγRIIB α subunit extracellular domain-His6-GST fusion (human, UniProt P31994 43-217); experiment: immune complex ELISA, E27 background
T3 construct: extracellular domain; also called CD32; not shown: glutathione S transferase (GST)
T3 sequence: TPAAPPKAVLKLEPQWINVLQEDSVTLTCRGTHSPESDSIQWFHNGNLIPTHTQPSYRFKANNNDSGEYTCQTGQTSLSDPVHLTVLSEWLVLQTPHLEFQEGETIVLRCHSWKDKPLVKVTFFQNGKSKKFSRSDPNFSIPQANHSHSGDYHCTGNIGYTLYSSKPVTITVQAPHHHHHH

[4] = target: T4, human FcγRIIIA-Phe158 α subunit extracellular domain-His6-GST fusion (human, UniProt P08637 17-208); experiment: immune complex ELISA, E27 background
T4 construct: extracellular domain; also called FcγRIIIA-F158; CD16; not shown: glutathione S transferase (GST)
T4 sequence (P08637 other isoform, or with tags, fused parts or gaps): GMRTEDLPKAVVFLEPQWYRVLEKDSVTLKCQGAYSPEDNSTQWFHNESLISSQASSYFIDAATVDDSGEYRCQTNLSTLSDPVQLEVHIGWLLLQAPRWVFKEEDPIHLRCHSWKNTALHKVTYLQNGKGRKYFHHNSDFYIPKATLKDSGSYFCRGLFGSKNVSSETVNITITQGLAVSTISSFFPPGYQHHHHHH

[5] = target: T5, human neonatal Fc receptor (FcRn), biotinylated (human, UniProt P55899 24-297; P61769 21-119, biotinylated (biotin-X-NHS)); experiment: FcRn ELISA (E27 background by paragraph 363)
T5 construct: captured on streptavidin plates
T5 sequence (P55899 24-297 limits assumed, chain 1 of 2): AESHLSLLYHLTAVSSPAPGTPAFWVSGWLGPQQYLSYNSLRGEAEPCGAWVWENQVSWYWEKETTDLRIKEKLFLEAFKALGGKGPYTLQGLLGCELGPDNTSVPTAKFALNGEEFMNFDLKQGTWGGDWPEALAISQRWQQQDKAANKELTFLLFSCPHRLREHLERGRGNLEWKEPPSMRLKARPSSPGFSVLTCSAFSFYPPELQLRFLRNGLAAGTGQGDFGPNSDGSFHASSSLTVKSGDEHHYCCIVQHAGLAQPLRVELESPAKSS
T5 sequence (P61769 21-119 limits assumed, chain 2 of 2): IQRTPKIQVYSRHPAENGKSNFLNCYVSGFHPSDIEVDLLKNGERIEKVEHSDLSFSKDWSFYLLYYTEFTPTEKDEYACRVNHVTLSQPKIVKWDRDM

[6] = target: T6, human FcγRIIA-His131 α subunit extracellular domain-His6-GST fusion (human, UniProt P12318 34-217); experiment: hexamer ELISA
T6 construct: extracellular domain; also called FcγRIIA-H131; not shown: glutathione S transferase (GST)
T6 sequence: T2 sequence with R134H

[7] = target: T2, human FcγRIIA-Arg131 α subunit …; experiment: hexamer ELISA
[8] = target: T3, human FcγRIIB α subunit extracellular …; experiment: hexamer ELISA
[9] = target: T4, human FcγRIIIA-Phe158 α subunit …; experiment: hexamer ELISA
[10] = target: T5, human neonatal Fc receptor (FcRn), …; experiment: FcRn ELISA, pH 6.0;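 as to ratio to native IgG1: Streptavidin-captured FcRn plates, IgG variants titrated 2 h at pH 6.0, peroxidase anti-human IgG read at 450 nm, variant over standard concentration at the standard curve mid-point absorbance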
[11] = target: T1, human FcγRIA α subunit extracellular …; experiment: FcγRI ELISA and THP-1 cells, averaged
[12] = target: T5, human neonatal Fc receptor (FcRn), …; experiment: FcRn ELISA, pH 6.0; remark: listed apart in the source;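 as to ratio to native IgG1: Streptavidin-captured FcRn plates, IgG variants titrated 2 h at pH 6.0, peroxidase anti-human IgG read at 450 nm, variant over standard concentration at the standard curve mid-point absorbance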
Procedure: (§1) FcRn Binding ELISA: For measuring FcRn binding activity of IgG variants, ELISA plates were coated with 2 µg/ml streptavidin (Zymed, South San Francisco) in 50 mM carbonate buffer, pH 9.6, at 4° C. overnight and blocked with PBS-0.5% BSA, pH 7.2 at room temperature for one hour. Biotinylated FcRn (prepared using biotin-X-NHS from Research Organics, Cleveland, Ohio and used at 1–2 µg/ml) in PBS-0.5% BSA, 0.05% polysorbate 20, pH 7.2, was added to the plate and incubated for one hour. Two fold serial dilutions of IgG standard (1.6–100 ng/ml) or variants in PBS-0.5% BSA, 0.05% polysorbate 20, pH 6.0, were added to the plate and incubated for two hours. Bound IgG was detected using peroxidase labeled goat F(ab')_2 anti-human IgG F(ab')_2 in the above pH 6.0 buffer (Jackson ImmunoResearch, West Grove, Pa.) followed by 3,3',5,5'-tetramethyl benzidine (Kirgaard & Perry Laboratories) as the substrate. Plates were washed between steps with PBS-0.05% TWEEN 20® at either pH 7.2 or 6.0. Absorbance was read at 450 nm on a Vmax plate reader (Molecular Devices, Menlo Park, Calif.). Titration curves were fit with a four-parameter nonlinear regression curve-fitting program (KaleidaGraph, Synergy software, Reading, Pa.). Concentrations of IgG variants corresponding to the mid-point absorbance of the titration curve of the standard were calculated and then divided by the concentration of the standard corresponding to the mid-point absorbance of the standard titration curve.

[13] = target: T4, human FcγRIIIA-Phe158 α subunit …; experiment: hexamer ELISA; remark: listed apart in the source
[14] = target: T7, human FcγRIIA-R131 α subunit extracellular domain-6His-GST fusion (human, UniProt P12318 34-217); experiment: ELISA, IgG:IgE hexamers on receptor-GST
T7 construct: also called FcγRIIA-Arg131; not shown: glutathione S-transferase (GST)
T7 sequence: T2 sequence

[15] = target: T8, human FcγRIIB α subunit extracellular domain-6His-GST fusion (human, UniProt P31994 43-217); experiment: ELISA, IgG:IgE hexamers on receptor-GST
T8 construct: not shown: glutathione S-transferase (GST)
T8 sequence: T3 sequence

[16] = target: T9, human FcγRIIIA-F158 α subunit extracellular domain-6His-GST fusion (human, UniProt P08637 17-208); experiment: ELISA, IgG:IgE hexamers on receptor-GST
T9 construct: also called FcγRIIIA-Phe158; not shown: glutathione S-transferase (GST)
T9 sequence (P08637 other isoform, or with tags, fused parts or gaps, form in doubt): as the sequence (P08637 other isoform, or with tags, fused parts or gaps) above

human FcRn, biotinylated = target: T10, human FcRn, biotinylated (human, UniProt P55899 24-297; P61769 21-119, biotinylated (biotin-X-NHS)); experiment: ELISA, biotin-FcRn on streptavidin, pH 6.0
T10 construct: Captured on streptavidin plates; IgG added at pH 6.0; also called neonatal Fc receptor
T10 sequence (P55899 24-297 limits assumed, chain 1 of 2): as the sequence (P55899 24-297 limits assumed, chain 1 of 2) above
T10 sequence (P61769 21-119 limits assumed, chain 2 of 2): as the sequence (P61769 21-119 limits assumed, chain 2 of 2) above
Procedure: as §1

[17] = target: T2, human FcγRIIA-Arg131 α subunit …; experiment: hexamer ELISA (row shifted)
[18] = target: T3, human FcγRIIB α subunit extracellular …; experiment: hexamer ELISA (row shifted)
[19] = target: T4, human FcγRIIIA-Phe158 α subunit …; experiment: hexamer ELISA (row shifted)
[20] = target: T1, human FcγRIA α subunit extracellular …; experiment: FcγRI ELISA and THP-1 cells, averaged (row shifted)

T1 sequence (P12314 other isoform, or with tags, fused parts or gaps): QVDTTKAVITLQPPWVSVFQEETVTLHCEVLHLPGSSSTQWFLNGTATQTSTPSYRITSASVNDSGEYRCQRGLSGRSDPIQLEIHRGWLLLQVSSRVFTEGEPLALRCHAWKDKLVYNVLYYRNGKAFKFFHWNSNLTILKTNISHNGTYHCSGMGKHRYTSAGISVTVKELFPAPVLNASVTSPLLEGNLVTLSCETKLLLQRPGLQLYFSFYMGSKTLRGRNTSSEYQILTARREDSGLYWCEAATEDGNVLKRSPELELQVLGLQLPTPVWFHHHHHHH

B1: recombinant humanized anti-IgE E27 IgG1 (parent antibody) (antibody)
heavy: not shown
light: DIQLTQSPSSLSASVGDRVTITCRASKPVDGEGDSYLNWYQQKPGKAPKLLIYAASYLESGVPSRFSGSGSGTDFTLTISSLQPEDFATYYCQQSHEDPYTFGQGTKVEIKRTVAAPSVFIFPPSDEQLKSGTASVVCLLNNFYPREAKVQWKVDNALQSGNSQESVTEQDSKDSTYSLSSTLTLSKADYEKHKVYACEVTHQGLSSPVTKSFNRGEC
notes: non-A allotype IgG1 Fc; E27 and all its variants were tested as monomers on FcRn and FcγRI and as hexamers with human IgE (3 E27 : 3 IgE) on FcγRIIA, FcγRIIB and FcγRIIIA; also called wt; E27 wildtype
**Q.** For B1, which “percentage of the wild type” value [1] is on record?
**A.** 100%

**Q.** And the “percentage of the wild type” value [2]?
**A.** 100%

**Q.** What about the “percentage of the wild type” value [3] of the same binder?
**A.** 100%

**Q.** And the “percentage of the wild type” value [4]?
**A.** 100%

**Q.** Does B1 bind [5]?
**A.** binds

B2: anti-IgE E27 IgG1 Asp270Ala (antibody)
heavy: not shown
light: B1 light
notes: also called D270(283)A
**Q.** With B2 as the binder, how does the “reduction in binding against native IgG1” value [6] read?
**A.** 50%

**Q.** What about the “ratio to native IgG1” value [7] of the same binder?
**A.** 0.06 ratio

**Q.** And the “ratio to native IgG1” value [8]?
**A.** 0.1 ratio

**Q.** What about the “ratio to native IgG1” value [9] of the same binder?
**A.** 0.14 ratio

**Q.** What about the “ratio to native IgG1” value [10] of the same binder?
**A.** 1.05 ratio

**Q.** And the “ratio to native IgG1” value [11]?
**A.** 0.76 ratio

B3: anti-IgE E27 IgG1 E318A (antibody)
heavy: not shown
light: B1 light
notes: also called Glu318Ala
**Q.** How did the “percentage of the wild type” value [1] turn out when B3 was run?
**A.** 93%

**Q.** And the “percentage of the wild type” value [2]?
**A.** 113%

**Q.** And the “percentage of the wild type” value [3]?
**A.** 106%

**Q.** What about the “percentage of the wild type” value [4] of the same binder?
**A.** 104%

**Q.** Does B3 bind [5]?
**A.** binds

B4: anti-IgE E27 IgG1 Thr307Ala/Glu380Ala/Asn434Ala (antibody)
heavy: EVQLVESGGGLVQPGGSLRLSCAVSGYSITSGYSWNWIRQAPGKGLEWVASIKYSGETKYNPSVKGRITISRDDSKNTFYLQMNSLRAEDTAVYYCARGSHYFGHWHFAVWGQGTLVTVSSASTKGPSVFPLAPSSKSTSGGTAALGCLVKDYFPEPVTVSWNSGALTSGVHTFPAVLQSSGLYSLSSVVTVPSSSLGTQTYICNVNHKPSNTKVDKKVEPKSCDKTHTCPPCPAPELLGGPSVFLFPPKPKDTLMISRTPEVTCVVVDVSHEDPEVKFNWYVDGVEVHNAKTKPREEQYNSTYRVVSVLAVLHQDWLNGKEYKCKVSNKALPAPIEKTISKAKGQPREPQVYTLPPSREEMTKNQVSLTCLVKGFYPSDIAVAWESNGQPENNYKTTPPVLDSDGSFFLYSKLTVDKSRWQQGNVFSCSVMHEALHAHYTQKSLSLSPGK
light: B1 light
**Q.** B4 was tested. Which “fold better binding than native IgG1” value [12] did it give?
**A.** 13 fold

B5: anti-IgE E27 IgG1 Glu380Ala (antibody)
heavy: not shown
light: B1 light
**Q.** For B5, which “ratio to native IgG1” value [7] is on record?
**A.** 1.18 ratio

**Q.** What about the “ratio to native IgG1” value [8] of the same binder?
**A.** 1.07 ratio

**Q.** What about the “ratio to native IgG1” value [9] of the same binder?
**A.** 0.92 ratio

**Q.** What about the “fold better binding than native IgG1” value [12] of the same binder?
**A.** 2 fold

**Q.** What about the “ratio to native IgG1” value [10] of the same binder?
**A.** 2.19 ratio

**Q.** And the “ratio to native IgG1” value [11]?
**A.** 1.04 ratio

B6: anti-IgE E27 IgG1 Ser267Gly (antibody)
heavy: not shown
light: B1 light
**Q.** Which results are given for B6?
**A.** binding result [13]: no binding; reduction in binding against native IgG1 [6]: 50%

B7: E27 IgG1 variant E380(405)A/N434(465)A/T307(326)A (antibody)
heavy: B4 heavy
light: B1 light
notes: also called IG2 270
**Q.** B7 was tested. Which “ratio to native IgG1” value [14] did it give?
**A.** 0.99

**Q.** What about the “ratio to native IgG1” value [15] of the same binder?
**A.** 0.99

**Q.** What about the “ratio to native IgG1” value [16] of the same binder?
**A.** 0.96

**Q.** What about the “ratio to native IgG1” value (human FcRn, biotinylated) of the same binder?
**A.** 11.8

B8: anti-IgE E27 IgG1 K320A (antibody)
heavy: not shown
light: B1 light
**Q.** What does the source list for B8?
**A.** percentage of the wild type [1]: 102%; percentage of the wild type [2]: 94%; percentage of the wild type [3]: 83%; percentage of the wild type [4]: 72%; binding result [5]: binds

B9: anti-IgE E27 IgG1 Glu380Ala/Asn434Ala (antibody)
heavy: not shown
light: B1 light
**Q.** For B9, which “fold better binding than native IgG1” value [12] is on record?
**A.** > 8 fold

B10: E27 IgG1 variant H434(465)A/K288(305)A (antibody)
heavy: not shown
light: B1 light
notes: also called IG2 272; Lys288Ala/Asn434Ala
**Q.** What does the source list for B10?
**A.** ratio to native IgG1 [14]: 0.94; ratio to native IgG1 [15]: 0.96; ratio to native IgG1 [16]: 0.88; ratio to native IgG1 (human FcRn, biotinylated): 2.9

B11: anti-IgE E27 IgG1 Tyr436Ala (antibody)
heavy: not shown
light: B1 light
**Q.** For B11, which “ratio to native IgG1” value [10] is on record?
**A.** < 0.1 ratio

**Q.** What about the “ratio to native IgG1” value [17] of the same binder?
**A.** 0.93 ratio

**Q.** And the “ratio to native IgG1” value [18]?
**A.** 0.91 ratio

**Q.** And the “ratio to native IgG1” value [19]?
**A.** 0.91 ratio

**Q.** What about the “ratio to native IgG1” value [20] of the same binder?
**A.** 0.99 ratio

B12: anti-IgE E27 IgG1 Ser254Ala (antibody)
heavy: not shown
light: B1 light
**Q.** Which “ratio to native IgG1” value [10] does the source give for B12 here?
**A.** < 0.1 ratio

**Q.** What about the “ratio to native IgG1” value [17] of the same binder?
**A.** 0.97 ratio

**Q.** And the “ratio to native IgG1” value [18]?
**A.** 1.15 ratio

**Q.** What about the “ratio to native IgG1” value [19] of the same binder?
**A.** 0.73 ratio

**Q.** What about the “ratio to native IgG1” value [20] of the same binder?
**A.** 0.96 ratio

B13: anti-IgE E27 IgG1 Asn434Ala (antibody)
heavy: not shown
light: B1 light
**Q.** For B13, which “ratio to native IgG1” value [7] is on record?
**A.** 0.96 ratio

**Q.** And the “ratio to native IgG1” value [8]?
**A.** 0.97 ratio

**Q.** And the “ratio to native IgG1” value [9]?
**A.** 0.77 ratio

**Q.** What about the “fold better binding than native IgG1” value [12] of the same binder?
**A.** 3.5 fold

**Q.** What about the “ratio to native IgG1” value [10] of the same binder?
**A.** 3.46 ratio

**Q.** And the “ratio to native IgG1” value [11]?
**A.** 1 ratio

B14: anti-IgE E27 IgG1 His435Ala (antibody)
heavy: not shown
light: B1 light
**Q.** For B14, which “ratio to native IgG1” value [10] is on record?
**A.** < 0.1 ratio

**Q.** And the “ratio to native IgG1” value [17]?
**A.** 0.77 ratio

**Q.** What about the “ratio to native IgG1” value [18] of the same binder?
**A.** 0.72 ratio

**Q.** What about the “ratio to native IgG1” value [19] of the same binder?
**A.** 0.78 ratio

**Q.** And the “ratio to native IgG1” value [20]?
**A.** 1.25 ratio
